From patent publication US20210155689A1 (SHANGHAI PHARMAEXPLORER, published 2021)
Values joined by “and” are separate entries in the source; they are usually repeats but may differ in a detail not shown here. Equal values may be shown once. Each block holds one substance with its values, some of them ahead of it.

Experiments:
[1] = target: human LAG-3 protein (full length, on cells) (human) (UniProt P18627); experiment: cell-based or functional assay
[2] = target: human LAG-3 protein with hFc tag (hLAG-3-hFc protein) (human) (UniProt P18627); experiment: ELISA, hLAG-3-hFc coated; 0.0000 nM
Sequence of human LAG-3 protein with hFc tag (hLAG-3-hFc protein) (human) (P18627 23-450): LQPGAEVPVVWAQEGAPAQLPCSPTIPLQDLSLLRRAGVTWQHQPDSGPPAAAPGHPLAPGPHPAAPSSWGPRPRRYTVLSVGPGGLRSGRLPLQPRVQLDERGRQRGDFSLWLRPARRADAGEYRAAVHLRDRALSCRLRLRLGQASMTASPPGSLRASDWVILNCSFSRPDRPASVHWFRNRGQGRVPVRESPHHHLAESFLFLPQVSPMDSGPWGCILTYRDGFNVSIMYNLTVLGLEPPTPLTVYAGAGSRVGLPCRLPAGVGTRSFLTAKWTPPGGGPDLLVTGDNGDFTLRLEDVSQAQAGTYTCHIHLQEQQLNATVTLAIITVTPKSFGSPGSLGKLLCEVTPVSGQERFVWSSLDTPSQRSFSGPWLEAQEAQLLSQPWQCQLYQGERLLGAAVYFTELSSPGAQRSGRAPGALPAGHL

[3] = target: human LAG-3 protein with hFc tag (hLAG-3-hFc protein) (human) (UniProt P18627); experiment: ELISA, hLAG-3-hFc coated; 0.0001 nM
[4] = target: human LAG-3 protein with hFc tag (hLAG-3-hFc protein) (human) (UniProt P18627); experiment: ELISA, hLAG-3-hFc coated; 0.0007 nM
[5] = target: human LAG-3 protein with hFc tag (hLAG-3-hFc protein) (human) (UniProt P18627); experiment: ELISA, hLAG-3-hFc coated; 0.0067 nM
[6] = target: human LAG-3 protein with hFc tag (hLAG-3-hFc protein) (human) (UniProt P18627); experiment: ELISA, hLAG-3-hFc coated; 0.0667 nM
[7] = target: human LAG-3 protein with hFc tag (hLAG-3-hFc protein) (human) (UniProt P18627); experiment: ELISA, hLAG-3-hFc coated; 0.6667 nM
[8] = target: human LAG-3 protein with hFc tag (hLAG-3-hFc protein) (human) (UniProt P18627); experiment: ELISA, hLAG-3-hFc coated; 6.6667 nM
[9] = target: hFc tagged monkey LAG-3 protein (cLAG-3-hFc protein) (monkey; human); experiment: ELISA, cLAG-3-hFc coated; 0.0000 nM
Sequence of hFc tagged monkey LAG-3 protein (cLAG-3-hFc protein) (monkey; human) (chain, as listed by the source): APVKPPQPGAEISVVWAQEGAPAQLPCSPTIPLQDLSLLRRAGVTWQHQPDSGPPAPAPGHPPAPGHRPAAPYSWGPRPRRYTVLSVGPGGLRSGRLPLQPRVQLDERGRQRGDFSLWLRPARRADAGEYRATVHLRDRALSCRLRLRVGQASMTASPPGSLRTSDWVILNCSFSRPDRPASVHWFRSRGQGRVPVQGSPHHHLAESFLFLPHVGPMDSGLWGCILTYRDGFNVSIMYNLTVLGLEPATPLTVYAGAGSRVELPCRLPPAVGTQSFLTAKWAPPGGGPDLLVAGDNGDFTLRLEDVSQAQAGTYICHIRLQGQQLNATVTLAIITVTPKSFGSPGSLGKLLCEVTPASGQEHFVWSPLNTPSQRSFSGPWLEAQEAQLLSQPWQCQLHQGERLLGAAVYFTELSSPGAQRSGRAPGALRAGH

[10] = target: hFc tagged monkey LAG-3 protein (cLAG-3-hFc protein) (monkey; human); experiment: ELISA, cLAG-3-hFc coated; 0.0001 nM
[11] = target: hFc tagged monkey LAG-3 protein (cLAG-3-hFc protein) (monkey; human); experiment: ELISA, cLAG-3-hFc coated; 0.0007 nM
[12] = target: hFc tagged monkey LAG-3 protein (cLAG-3-hFc protein) (monkey; human); experiment: ELISA, cLAG-3-hFc coated; 0.0067 nM
[13] = target: hFc tagged monkey LAG-3 protein (cLAG-3-hFc protein) (monkey; human); experiment: ELISA, cLAG-3-hFc coated; 0.0667 nM
[14] = target: hFc tagged monkey LAG-3 protein (cLAG-3-hFc protein) (monkey; human); experiment: ELISA, cLAG-3-hFc coated; 0.6667 nM
[15] = target: hFc tagged monkey LAG-3 protein (cLAG-3-hFc protein) (monkey; human); experiment: ELISA, cLAG-3-hFc coated; 6.6667 nM
[16] = target: mouse LAG-3 protein with hFc tag (mLAG-3-hFc protein) (mouse; human) (UniProt Q61790); experiment: ELISA, mLAG-3-hFc coated; 0.0001 nM
Sequence of mouse LAG-3 protein with hFc tag (mLAG-3-hFc protein) (mouse; human) (Q61790 24-442): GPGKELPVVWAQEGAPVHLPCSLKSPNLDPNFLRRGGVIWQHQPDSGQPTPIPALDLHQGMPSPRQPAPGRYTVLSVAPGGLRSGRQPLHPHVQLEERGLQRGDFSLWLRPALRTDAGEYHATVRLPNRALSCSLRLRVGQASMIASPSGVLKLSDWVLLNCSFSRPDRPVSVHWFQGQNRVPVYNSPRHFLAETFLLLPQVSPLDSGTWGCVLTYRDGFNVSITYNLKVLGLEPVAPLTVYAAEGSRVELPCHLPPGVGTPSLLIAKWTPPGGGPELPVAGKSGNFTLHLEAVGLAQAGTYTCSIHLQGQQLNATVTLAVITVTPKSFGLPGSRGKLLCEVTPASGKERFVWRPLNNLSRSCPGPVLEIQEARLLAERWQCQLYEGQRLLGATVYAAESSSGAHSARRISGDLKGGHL

[17] = target: mouse LAG-3 protein with hFc tag (mLAG-3-hFc protein) (mouse; human) (UniProt Q61790); experiment: ELISA, mLAG-3-hFc coated; 0.0007 nM
[18] = target: mouse LAG-3 protein with hFc tag (mLAG-3-hFc protein) (mouse; human) (UniProt Q61790); experiment: ELISA, mLAG-3-hFc coated; 0.0067 nM
[19] = target: mouse LAG-3 protein with hFc tag (mLAG-3-hFc protein) (mouse; human) (UniProt Q61790); experiment: ELISA, mLAG-3-hFc coated; 0.0667 nM
[20] = target: mouse LAG-3 protein with hFc tag (mLAG-3-hFc protein) (mouse; human) (UniProt Q61790); experiment: ELISA, mLAG-3-hFc coated; 0.6667 nM
[21] = target: mouse LAG-3 protein with hFc tag (mLAG-3-hFc protein) (mouse; human) (UniProt Q61790); experiment: ELISA, mLAG-3-hFc coated; 6.6667 nM
[22] = target: human LAG-3 protein with hFc tag (hLAG-3-hFc protein) (human) (UniProt P18627); experiment: ELISA, hLAG-3-hFc coated; 66.6670 nM
[23] = target: hFc tagged monkey LAG-3 protein (cLAG-3-hFc protein) (monkey; human); experiment: ELISA, cLAG-3-hFc coated; 66.6670 nM
[24] = target: mouse LAG-3 protein with hFc tag (mLAG-3-hFc protein) (mouse; human) (UniProt Q61790); experiment: ELISA, mLAG-3-hFc coated; 66.6670 nM
[25] = target: human LAG-3 protein (full length, on cells) (human) (UniProt P18627); experiment: FACS on HEK293-hLAG-3 cells, antibody 8 nM
[26] = target: human LAG-3 protein (full length, on cells) (human) (UniProt P18627); experiment: FACS on HEK293-hLAG-3 cells, antibody 1.6 nM
[27] = target: human LAG-3 protein (full length, on cells) (human) (UniProt P18627); experiment: FACS on HEK293-hLAG-3 cells, antibody 0.32 nM
[28] = target: human LAG-3 protein (full length, on cells) (human) (UniProt P18627); experiment: FACS on HEK293-hLAG-3 cells, antibody 0.013 nM
[29] = target: human LAG-3 protein (full length, on cells) (human) (UniProt P18627); experiment: FACS on HEK293-hLAG-3 cells, antibody 0.064 nM
[30] = target: human LAG-3 protein (full length, on cells) (human) (UniProt P18627); experiment: FACS on HEK293-hLAG-3 cells, antibody 0 nM (background)
[31] = target: human LAG-3-hFc protein (human) (UniProt P18627); experiment: competition FACS: inhibition of LAG-3-hFc binding to MHC II on Raji cells, antibody 0.000 nM
Sequence of human LAG-3-hFc protein (human) (P18627 23-450): as the sequence (P18627 23-450) above

[32] = target: human LAG-3-hFc protein (human) (UniProt P18627); experiment: competition FACS: inhibition of LAG-3-hFc binding to MHC II on Raji cells, antibody 0.274 nM
[33] = target: human LAG-3-hFc protein (human) (UniProt P18627); experiment: competition FACS: inhibition of LAG-3-hFc binding to MHC II on Raji cells, antibody 0.823 nM
[34] = target: human LAG-3-hFc protein (human) (UniProt P18627); experiment: competition FACS: inhibition of LAG-3-hFc binding to MHC II on Raji cells, antibody 2.469 nM
[35] = target: human LAG-3-hFc protein (human) (UniProt P18627); experiment: competition FACS: inhibition of LAG-3-hFc binding to MHC II on Raji cells, antibody 7.407 nM
[36] = target: human LAG-3-hFc protein (human) (UniProt P18627); experiment: competition FACS: inhibition of LAG-3-hFc binding to MHC II on Raji cells, antibody 22.222 nM
[37] = target: human LAG-3-hFc protein (human) (UniProt P18627); experiment: competition FACS: inhibition of LAG-3-hFc binding to MHC II on Raji cells, antibody 66.667 nM
[38] = target: human LAG-3-hFc protein (human) (UniProt P18627); experiment: competition FACS: inhibition of LAG-3-hFc binding to MHC II on Raji cells, antibody 200.000 nM
[39] = target: MHC II on Raji cells; experiment: FACS, Raji cells; 0 ug/ml
[40] = target: MHC II on Raji cells; experiment: FACS, Raji cells; 0.1 ug/ml
[41] = target: MHC II on Raji cells; experiment: FACS, Raji cells; 0.3 ug/ml
[42] = target: MHC II on Raji cells; experiment: FACS, Raji cells; 0.8 ug/ml
[43] = target: MHC II on Raji cells; experiment: FACS, Raji cells; 2.5 ug/ml
[44] = target: MHC II on Raji cells; experiment: FACS, Raji cells; 200 ug/ml
[45] = target: MHC II on Raji cells; experiment: FACS, Raji cells; 7.4 ug/ml
[46] = target: MHC II on Raji cells; experiment: FACS, Raji cells; 22.2 ug/ml
[47] = target: MHC II on Raji cells; experiment: FACS, Raji cells; 66.7 ug/ml
[48] = target: human LAG-3 protein with hFc tag (hLAG-3-hFc protein) (human) (UniProt P18627); experiment: ELISA, hLAG-3-hFc coated 1 ug/ml; 0.0000 ug/mL
[49] = target: human LAG-3 protein with hFc tag (hLAG-3-hFc protein) (human) (UniProt P18627); experiment: ELISA, hLAG-3-hFc coated 1 ug/ml; 0.0019 ug/mL
[50] = target: human LAG-3 protein with hFc tag (hLAG-3-hFc protein) (human) (UniProt P18627); experiment: ELISA, hLAG-3-hFc coated 1 ug/ml; 0.0096 ug/mL
[51] = target: human LAG-3 protein with hFc tag (hLAG-3-hFc protein) (human) (UniProt P18627); experiment: ELISA, hLAG-3-hFc coated 1 ug/ml; 0.0480 ug/mL
[52] = target: human LAG-3 protein with hFc tag (hLAG-3-hFc protein) (human) (UniProt P18627); experiment: ELISA, hLAG-3-hFc coated 1 ug/ml; 0.2400 ug/mL
[53] = target: human LAG-3 protein with hFc tag (hLAG-3-hFc protein) (human) (UniProt P18627); experiment: ELISA, hLAG-3-hFc coated 1 ug/ml; 1.2000 ug/mL
[54] = target: human LAG-3 protein with hFc tag (hLAG-3-hFc protein) (human) (UniProt P18627); experiment: ELISA, hLAG-3-hFc coated 1 ug/ml; 6.0000 ug/mL
[55] = target: human LAG-3 protein with hFc tag (hLAG-3-hFc protein) (human) (UniProt P18627); experiment: ELISA, hLAG-3-hFc coated 1 ug/ml; 30.0000 ug/mL

Sequence of human LAG-3 protein (full length, on cells) (human) (P18627 23-525 limits assumed): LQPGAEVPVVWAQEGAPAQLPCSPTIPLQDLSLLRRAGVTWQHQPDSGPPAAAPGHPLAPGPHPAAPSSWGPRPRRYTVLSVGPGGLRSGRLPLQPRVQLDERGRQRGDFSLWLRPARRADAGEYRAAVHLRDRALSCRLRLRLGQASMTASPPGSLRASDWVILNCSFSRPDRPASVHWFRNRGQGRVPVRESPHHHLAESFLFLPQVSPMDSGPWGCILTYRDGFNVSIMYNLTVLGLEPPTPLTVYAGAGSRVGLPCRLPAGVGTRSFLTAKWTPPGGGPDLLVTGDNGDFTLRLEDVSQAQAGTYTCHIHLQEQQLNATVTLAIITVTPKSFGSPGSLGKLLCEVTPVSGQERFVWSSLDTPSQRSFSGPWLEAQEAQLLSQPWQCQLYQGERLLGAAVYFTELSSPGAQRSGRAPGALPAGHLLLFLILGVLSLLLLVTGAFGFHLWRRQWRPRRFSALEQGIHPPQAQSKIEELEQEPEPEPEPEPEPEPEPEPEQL

- IL-2 production, pg/ml; antibody 0.0032 ug/ml, N = 1 [1]: 144 pg/mL
- IL-2 production, pg/ml; antibody 0.0032 ug/ml, N = 2 [1]: 123 pg/mL
- IL-2 production, pg/ml; antibody 0.016 ug/ml, N = 1 [1]: 141 pg/mL
- IL-2 production, pg/ml; antibody 0.016 ug/ml, N = 2 [1]: 143 pg/mL
- IL-2 production, pg/ml; antibody 0.08 ug/ml, N = 1 [1]: 157 pg/mL
- IL-2 production, pg/ml; antibody 0.08 ug/ml, N = 2 [1]: 145 pg/mL
- IL-2 production, pg/ml; antibody 0.4 ug/ml, N = 1 [1]: 159 pg/mL
- IL-2 production, pg/ml; antibody 0.4 ug/ml, N = 2 [1]: 179 pg/mL
- IL-2 production, pg/ml; antibody 2 ug/ml, N = 1 [1]: 164 pg/mL
- IL-2 production, pg/ml; antibody 2 ug/ml, N = 2 [1]: 162 pg/mL
- IL-2 production, pg/ml; antibody 10 ug/ml, N = 1 [1]: 142 pg/mL
- IL-2 production, pg/ml; antibody 10 ug/ml, N = 2 [1]: 168 pg/mL
- OD450 [2]: 0.11 OD450
- OD450 [3]: 0.1 OD450
- OD450 [4]: 0.1 OD450
- OD450 [5]: 0.13 OD450
- OD450 [6]: 0.11 OD450
- OD450 [7]: 0.14 OD450
- OD450 [8]: 0.29 OD450
- OD450 [9]: 0.13 OD450
- OD450 [10]: 0.14 OD450
- OD450 [11]: 0.13 OD450
- OD450 [12]: 0.19 OD450
- OD450 [13]: 0.14 OD450
- OD450 [14]: 0.18 OD450
- OD450 [15]: 0.29 OD450
- OD450 [16]: 0.08 OD450
- OD450 [17]: 0.07 OD450
- OD450 [18]: 0.08 OD450
- OD450 [19]: 0.08 OD450
- OD450 [20]: 0.09 OD450
- OD450 [21]: 0.18 OD450
- OD450 [22]: 1.17 OD450
- OD450 [23]: 1.16 OD450
- OD450 [24]: 0.56 OD450
- Mean fluorescence intensity [25]: 3 MFI
- Mean fluorescence intensity [26]: 3 MFI
- Mean fluorescence intensity [27]: 3 MFI
- Mean fluorescence intensity [28]: 3 MFI
- Mean fluorescence intensity [29]: 3 MFI
- Mean fluorescence intensity [30]: 3 MFI
- Inhibition rate (%) [31]: 0%
- Inhibition rate (%) [32]: 0%
- Inhibition rate (%) [33]: 2%
- Inhibition rate (%) [34]: 3%
- Inhibition rate (%) [35]: 1%
- Inhibition rate (%) [36]: 0%
- Inhibition rate (%) [37]: 4%
- Inhibition rate (%) [38]: 1%
Substance: hIgG control (human IgG) (antibody)

- Mean fluorescence value [39]: 13 MFI
- Mean fluorescence value [40]: 13 MFI
- Mean fluorescence value [41]: 11 MFI
- Mean fluorescence value [42]: 12 MFI
- Mean fluorescence value [43]: 14 MFI
- Mean fluorescence value [44]: 21 MFI
- Mean fluorescence value [45]: 18 MFI
- Mean fluorescence value [46]: 20 MFI
- Mean fluorescence value [47]: 28 MFI
Substance: hFc (control protein of Table 1)

- OD450 [48]: 0.06 OD450
- OD450 [49]: 0.06 OD450
- OD450 [50]: 0.06 OD450
- OD450 [51]: 0.06 OD450
- OD450 [52]: 0.07 OD450 and 0.06 OD450
- OD450 [53]: 0.07 OD450 and 0.06 OD450
- OD450 [54]: 0.09 OD450
- OD450 [55]: 0.16 OD450 and 0.14 OD450
Substance: Negative protein (control of Table 2)
